Literature values in PMC4944212.
Read-outs that look alike come from different tables or passages of the source.

Legend:
[1] = target: SosCat SosCat (Homo sapiens) (UniProt Q07889); experiment: fluorescence titration
[2] = target: SosCat SosCat (Homo sapiens) (UniProt Q07889)
[3] = target: SosCat SosCat catalytic site (Homo sapiens) (UniProt Q07889)

- Kd [1]: 5 µM
- Kd [2]: 54 µM
- Kd [3]: 21 µM
Substance: H-Ras (from UniProt P01112)
